Experimental data taken from patent US8933039.
Positions count from the first letter of the chain named.

What was measured:
[Lys2]hGLP-2(1-33) = target: T1, [Lys2]hGLP-2(1-33)
T1 chain: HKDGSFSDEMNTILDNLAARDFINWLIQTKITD

[Tyr2]hGLP-2(1-33) = target: T2, [Tyr2]hGLP-2(1-33)
T2 chain: T1 chain with K2Y

[PhGly2]hGLP-2(1-33) = target: T3, [PhGly2]hGLP-2(1-33)
T3 chain: T1 chain with K2X

[Glu3]ratGLP-2(1-33) = target: T4, [Glu3]ratGLP-2(1-33)
T4 chain: T1 chain with K2A, D3E, A19T

[Ser2,Gln3]hGLP-2(1-33) = target: T5, [Ser2,Gln3]hGLP-2(1-33)
T5 chain: T1 chain with K2S, D3Q

[Gly2]ratGLP-2(1-33) = target: T6, [Gly2]ratGLP-2(1-33)
T6 chain: T1 chain with K2G, A19T

[tBuGly2]hGLP-2 = target: T7, [tBuGly2]hGLP-2
T7 chain: T1 chain with K2X

[DAla2]ratGLP-2(1-33) = target: T8, [DAla2]ratGLP-2(1-33)
T8 chain: T1 chain with K2A, A19T

[Asn2]hGLP-2(1-33) = target: T9, [Asn2]hGLP-2(1-33)
T9 chain: T1 chain with K2N

[Tyr25]hGLP-2(1-33) = target: T10, [Tyr25]hGLP-2(1-33)
T10 chain: T1 chain with K2A, W25Y

[Ile2]hGLP-2(1-33) = target: T11, [Ile2]hGLP-2(1-33)
T11 chain: T1 chain with K2I

[Aib2]hGLP-2(1-33) = target: T12, [Aib2]hGLP-2(1-33)
T12 chain: T1 chain with K2X

[His2]hGLP-2(1-33) = target: T13, [His2]hGLP-2(1-33)
T13 chain: T1 chain with K2H

[Nval2]hGLP-2(1-33) = target: T14, [Nval2]hGLP-2(1-33)
T14 chain: T1 chain with K2X

[bAla2]hGLP-2(1-33) = target: T15, [bAla2]hGLP-2(1-33)
T15 chain: T1 chain with K2X

[Gly2,Ala5]hGLP-2(1-33) = target: T16, [Gly2,Ala5]hGLP-2(1-33)
T16 chain: T1 chain with K2G, S5A

[Gly2,Ala24]hGLP-2(1-33) = target: T17, [Gly2,Ala24]hGLP-2(1-33)
T17 chain: T1 chain with K2G, N24A

[Tyr1, Gly2]hGLP-2(1-33) = target: T18, [Tyr1, Gly2]hGLP-2(1-33)
T18 chain: T1 chain with H1Y, K2G

Ac-ratGLP-2(1-33) = target: T19, Ac-ratGLP-2(1-33)
T19 chain: T1 chain with K2A, A19T

[Gly2]hGLP-2(1-33) = target: T20, [Gly2]hGLP-2(1-33)
T20 chain: T1 chain with K2G

[Ala5, Ala7]hGLP-2(1-33) = target: T21, [Ala5, Ala7]hGLP-2(1-33)
T21 chain: T1 chain with K2A, S5A, S7A

[Pro2]hGLP-2(1-33) = target: T22, [Pro2]hGLP-2(1-33)
T22 chain: T1 chain with K2P

[Val2]hGLP-2(1-33) = target: T23, [Val2]hGLP-2(1-33)
T23 chain: T1 chain with K2V

hGLP-2(1-33) = target: T24, hGLP-2(1-33)
T24 chain: T1 chain with K2A

[Met2]hGLP-2(1-33) = target: T25, [Met2]hGLP-2(1-33)
T25 chain: T1 chain with K2M

ratGLP-2(1-33) = target: T26, ratGLP-2(1-33)
T26 chain: T1 chain with K2A, A19T

[Arg30]hGLP-2(1-33) = target: T27, [Arg30]hGLP-2(1-33)
T27 chain: T1 chain with K2A, K30R

[Tyr1]ratGLP-2(1-33) = target: T28, [Tyr1]ratGLP-2(1-33)
T28 chain: T1 chain with H1Y, K2A, A19T

[Gly2,Ala3]hGLP-2(1-33) = target: T29, [Gly2,Ala3]hGLP-2(1-33)
T29 chain: T1 chain with K2G, D3A

[Pro1]hGLP-2(1-33) = target: T30, [Pro1]hGLP-2(1-33)
T30 chain: T1 chain with H1P, K2A

[1] = target: T31, [Gly2, Arg34]hGLP-2(1-34)
T31 chain: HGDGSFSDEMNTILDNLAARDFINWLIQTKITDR

[Ala1,Gly2]hGLP-2(1-33) = target: T32, [Ala1,Gly2]hGLP-2(1-33)
T32 chain: T1 chain with H1A, K2G

[desNH2Tyr1]hGLP-2(1-33) = target: T33, [desNH2Tyr1]hGLP-2(1-33)
T33 chain: T1 chain with H1Y, K2A

[aAbu2]hGLP-2(1-33) = target: T34, [aAbu2]hGLP-2(1-33)
T34 chain: T1 chain with K2X

[Asp2]hGLP-2(1-33) = target: T35, [Asp2]hGLP-2(1-33)
T35 chain: T1 chain with K2D

[2] = target: T36, [Gly2, Tyr34]hGLP-2(1-34)
T36 chain: T31 chain with R34Y

[Val2]GLP-2(1-33) = target: T37, [Val2]GLP-2(1-33)
T37 chain: T1 chain with K2V, A19T

[Glu33]hGLP-2(1-33) = target: T38, [Glu33]hGLP-2(1-33)
T38 chain: T1 chain with K2A, D33E

[Glu2]hGLP-2(1-33) = target: T39, [Glu2]hGLP-2(1-33)
T39 chain: T1 chain with K2E

[Phe2]hGLP-2(1-33) = target: T40, [Phe2]hGLP-2(1-33)
T40 chain: T1 chain with K2F

[Asp1]hGLP-2(1-33) = target: T41, [Asp1]hGLP-2(1-33)
T41 chain: T1 chain with H1D, K2A

[Gly2,Ala4]hGLP-2(1-33) = target: T42, [Gly2,Ala4]hGLP-2(1-33)
T42 chain: T1 chain with K2G, G4A

[Arg-l]ratGLP-2(-1-33) = target: T43, [Arg-l]ratGLP-2(-1-33)
T43 chain: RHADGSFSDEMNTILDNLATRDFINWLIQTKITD

[3] = target: T44, [Arg-2,Arg-1]ratGLP-2(2-33)
T44 chain: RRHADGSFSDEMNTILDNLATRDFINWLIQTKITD

[Pro3]hGLP-2(1-33) = target: T45, [Pro3]hGLP-2(1-33)
T45 chain: T1 chain with K2A, D3P

[Thr2]hGLP-2(1-33) = target: T46, [Thr2]hGLP-2(1-33)
T46 chain: T1 chain with K2T

[Phe25]hGLP-2(1-33) = target: T47, [Phe25]hGLP-2(1-33)
T47 chain: T1 chain with K2A, W25F

[Ser2]hGLP-2(1-33) = target: T48, [Ser2]hGLP-2(1-33)
T48 chain: T1 chain with K2S

[Ala4]ratGLP-2(1-33) = target: T49, [Ala4]ratGLP-2(1-33)
T49 chain: T1 chain with K2A, G4A, A19T

[Pen2]hGLP-2(1-33) = target: T50, [Pen2]hGLP-2(1-33)
T50 chain: T1 chain with K2X

[Gln2]hGLP-2(1-33) = target: T51, [Gln2]hGLP-2(1-33)
T51 chain: T1 chain with K2Q

[D-Ala2]hGLP-2(1-33) = target: T52, [D-Ala2]hGLP-2(1-33)
T52 chain: T1 chain with K2A

B1: human placental DPP-IV (Calbiochem, La Jolla, Calif., cat. #317624) (protein)
chain: MKTPWKVLLGLLGAAALVTIITVPVVLLNKGTDDATADSRKTYTLTDYLKNTYRLKLYSLRWISDHEYLYKQENNILVFNAEYGNSSVFLENSTFDEFGHSINDYSISPDGQFILLEYNYVKQWRHSYTASYDIYDLNKRQLITEERIPNNTQWVTWSPVGHKLAYVWNNDIYVKIEPNLPSYRITWTGKEDIIYNGITDWVYEEEVFSAYSALWWSPNGTFLAYAQFNDTEVPLIEYSFYSDESLQYPKTVRVPYPKAGAVNPTVKFFVVNTDSLSSVTNATSIQITAPASMLIGDHYLCDVTWATQERISLQWLRRIQNYSVMDICDYDESSGRWNCLVARQHIEMSTTGWVGRFRPSEPHFTLDGNSFYKIISNEEGYRHICYFQIDKKDCTFITKGTWEVIGIEALTSDYLYYISNEYKGMPGGRNLYKIQLSDYTKVTCLSCELNPERCQYYSVSFSKEAKYYQLRCSGPGLPLYTLHSSVNDKGLRVLEDNSALDKMLQNVQMPSKKLDFIILNETKFWYQMILPPHFDKSKKYPLLLDVYAGPCSQKADTVFRLNWATYLASTENIIVASFDGRGSGYQGDKIMHAINRRLGTFEVEDQIEAARQFSKMGFVDNKRIAIWGWSYGGYVTSMVLGSGSGVFKCGIAVAPVSRWEYYDSVYTERYMGLPTPEDNLDHYRNSTVMSRAENFKQVEYLLIHGTADDNVHFQQSAQISKALVDVGVDFQAMWYTDEDHGIASSTAHQHIYTHMSHFIKQCFSLP
% Cleaved by DPP-IV ([Lys2]hGLP-2(1-33)): 0% | % Cleaved by DPP-IV ([Tyr2]hGLP-2(1-33)): 0% | % Cleaved by DPP-IV ([PhGly2]hGLP-2(1-33)): 0% | % Cleaved by DPP-IV ([Glu3]ratGLP-2(1-33)): 50% | % Cleaved by DPP-IV ([Ser2,Gln3]hGLP-2(1-33)): 0% | % Cleaved by DPP-IV ([Gly2]ratGLP-2(1-33)): 0% | extent of cleavage after 24 hour incubation (RP-HPLC) ([Gly2]ratGLP-2(1-33)): No cleavage products were detected | % Cleaved by DPP-IV ([tBuGly2]hGLP-2): 0% | % Cleaved by DPP-IV ([DAla2]ratGLP-2(1-33)): 0% | extent of cleavage after 24 hour incubation (RP-HPLC) ([DAla2]ratGLP-2(1-33)): No cleavage products were detected | % Cleaved by DPP-IV ([Asn2]hGLP-2(1-33)): 0% | % Cleaved by DPP-IV ([Tyr25]hGLP-2(1-33)): 48% | % Cleaved by DPP-IV ([Ile2]hGLP-2(1-33)): 0% | % Cleaved by DPP-IV ([Aib2]hGLP-2(1-33)): 0% | % Cleaved by DPP-IV ([His2]hGLP-2(1-33)): 0% | % Cleaved by DPP-IV ([Nval2]hGLP-2(1-33)): 0% | % Cleaved by DPP-IV ([bAla2]hGLP-2(1-33)): 0% | % Cleaved by DPP-IV ([Gly2,Ala5]hGLP-2(1-33)): 0% | % Cleaved by DPP-IV ([Gly2,Ala24]hGLP-2(1-33)): 0% | % Cleaved by DPP-IV ([Tyr1, Gly2]hGLP-2(1-33)): 0% | % Cleaved by DPP-IV (Ac-ratGLP-2(1-33)): 0% | % Cleaved by DPP-IV ([Gly2]hGLP-2(1-33)): 0% | % Cleaved by DPP-IV ([Ala5, Ala7]hGLP-2(1-33)): 77% | % Cleaved by DPP-IV ([Pro2]hGLP-2(1-33)): 16% | % Cleaved by DPP-IV ([Val2]hGLP-2(1-33)): 13% | % Cleaved by DPP-IV (hGLP-2(1-33)): 60% | % Cleaved by DPP-IV ([Met2]hGLP-2(1-33)): 0% | % Cleaved by DPP-IV (ratGLP-2(1-33)): 58% | extent of cleavage after 24 hour incubation (RP-HPLC) (ratGLP-2(1-33)): 22% of the control peptide, rGLP-2, was cleaved by DPP-IV | % Cleaved by DPP-IV ([Arg30]hGLP-2(1-33)): 59% | % Cleaved by DPP-IV ([Tyr1]ratGLP-2(1-33)): 100% | % Cleaved by DPP-IV ([Gly2,Ala3]hGLP-2(1-33)): 0% | % Cleaved by DPP-IV ([Pro1]hGLP-2(1-33)): 0% | % Cleaved by DPP-IV [1]: 0% | % Cleaved by DPP-IV ([Ala1,Gly2]hGLP-2(1-33)): 0% | % Cleaved by DPP-IV ([desNH2Tyr1]hGLP-2(1-33)): 15% | % Cleaved by DPP-IV ([aAbu2]hGLP-2(1-33)): 49% | % Cleaved by DPP-IV ([Asp2]hGLP-2(1-33)): 0% | % Cleaved by DPP-IV [2]: 0% | % Cleaved by DPP-IV ([Val2]GLP-2(1-33)): 0% | % Cleaved by DPP-IV ([Glu33]hGLP-2(1-33)): 55% | % Cleaved by DPP-IV ([Glu2]hGLP-2(1-33)): 0% | % Cleaved by DPP-IV ([Phe2]hGLP-2(1-33)): 0% | % Cleaved by DPP-IV ([Asp1]hGLP-2(1-33)): 0% | % Cleaved by DPP-IV ([Gly2,Ala4]hGLP-2(1-33)): 0% | % Cleaved by DPP-IV ([Arg-l]ratGLP-2(-1-33)): 0% | % Cleaved by DPP-IV [3]: 0% | % Cleaved by DPP-IV ([Pro3]hGLP-2(1-33)): 0% | % Cleaved by DPP-IV ([Thr2]hGLP-2(1-33)): 0% | % Cleaved by DPP-IV ([Phe25]hGLP-2(1-33)): 54% | % Cleaved by DPP-IV ([Ser2]hGLP-2(1-33)): 0% | % Cleaved by DPP-IV ([Ala4]ratGLP-2(1-33)): 72% | % Cleaved by DPP-IV ([Pen2]hGLP-2(1-33)): 20% | % Cleaved by DPP-IV ([Gln2]hGLP-2(1-33)): 0% | % Cleaved by DPP-IV ([D-Ala2]hGLP-2(1-33)): 0%
